B1: FGF10: FGF produced by mesenchymal cells, used at about 100 ng/mL (protein, UniProt O15520 38-208, looked up)
Fibroblast growth factor 10: QALGQDMVSPEATNSSSSSFSSPSSAGRHVRSYNHLQGDVRWRKLFSFTKYFLKIEKNGKVSGTKKENCPYSILEITSVEIGVVAVKAINSNYYLAMNKKGKLYGSKEFNNDCKLKERIEENGYNTYASFNWQHNGRQMYVALNGKGAPRRGQKTRRKNTSAHFLPMVVHS
B2: GDF11: member of the BMP/TGFbeta superfamily (protein, UniProt O95390 299-407, looked up)
Growth/differentiation factor …: NLGLDCDEHSSESRCCRYPLTVDFEAFGWDWIIAPKRYKANYCSGQCEYMFMQKYPHTHLVQQANPRGSAGPCCTPTKMSPINMLYFNDKQQIIYGKIPGMVVDRCGCS

Test system: rat MAPCs
Assay: Cytokine mediated differentiation of rat MAPCs, Q-RT-PCR and cell survival
Assay type: cell-based
Method: For Q-RT-PCR reactions described herein, the primer sequences are presented in Tables 3-5 and the following protocols were used: RNA was extracted from the cells with the aid of the RNeasy Mini Kit (Qiagen; Valencia Calif.), followed by a DNase Treatment with DNA-Free™ (Ambion, Austin, Tex.). The RNA was reverse transcribed with TaqMan (Applied Biosystems, Foster City, Calif.; Step 1 (Incubation): 25° C., 10 min; Step 2 (RT): 48° C., 30 min; Step 3 (RT Inactivation): 95° C., 10 min).
Following reverse transcription, Quantitative Real Time PCR (Q-RT-PCR) was performed as follows: Step 1: 50° C., 2 min (Incubation); Step 2: 95° C., 10 min (Taq activation); Step 3: 95° C., 15 sec (Denaturation) followed by 60° C., 1 min (Extension) and repeat for 40 cycles; Step 4: 95° C., 15 sec (Dissociation); Step 5: 60° C., 20 sec (Melting curve); Step 6: 95° C., 15 sec.
In an initial series of studies, the effect of cell density (about 10^4-10^5 cells/cm^2), ECM component (fibronectin, collagen, matrigel) and different concentrations (10-100 ng/mL) of bFGF (10-100 ng/mL), FGF2 (10-100 ng/mL), Activin A (e.g., about 10 ng/mL to about 100 ng/mL), BMP4 (e.g., about 10 ng/mL to about 50 ng/mL), retinoic acid (about 10^−6M), EGF (e.g., about 10 to about 100 ng/mL), FGF10 (e.g., about 50 to about 150 ng/mL, including about 100 ng/mL), HGF (e.g., about 10 to about 100 ng/mL), GDF11 (e.g., about 50 to abut 150 ng/mL), cyclopamine (e.g., about 10 μM), anti-SHH antibody (Ab; e.g., about 10 μg/mL), nicotinamide (e.g., 5 μM to about 50 μM, including about 10 μM), exendin 4 (about 5 nM to about 50 nM, including about 10 nM), betacellulin (e.g., about 50 to abut 150 ng/mL) alone or in combinations of 2 or 3 and in different temporal sequences, on the induction of transcription factors, insulin, glucagon and somatostatin expression levels after 6, 12 and 18 days using Q-RT-PCR was determined.
Subsequent addition of factors believed to play a role in further proliferation and differentiation from pancreas-committed cells to mature endocrine pancreas, including EGF (e.g., about 50 ng/mL), HGF (e.g., about 50 ng/mL) and FGF10 (e.g., about 100 ng/mL), either alone or in combination was tested. […] Further optimization was obtained by adjusting the duration of the different steps along the differentiation course, as well addition of β-cellulin (50 ng/mL).

Molecule | cell survival (activin-A, BMP4 and cyclopamine or anti-SHH Ab withdrawn after d6, cells then maintained with the factor) | Ins1 and Ins2 mRNA levels (GDF11 added)
B1 | not | 
B2 |  | a further increase

Source: patent US8409859B2, “Differentiation of non-embryonic stem cells to cells having a pancreatic phenotype” (Regents of the University of Minnesota, priority 2005, dated 2013)
